{
  "source": "paper PMC7785527",
  "about": "“Human Short Peptidoglycan Recognition Protein PGLYRP1/Tag-7/PGRP-S Inhibits Listeria monocytogenes Intracellular Survival in Macrophages” (Frontiers in Cellular and Infection Microbiology, 2020)",
  "target": "the molecule itself",
  "assay": "SDS-PAGE without reducing agent (bands identified by MALDI-MS); 3 ug purified PGLYRP1; Laemmli loading buffer without beta-mercaptoethanol (compared with 5 mM beta-mercaptoethanol); Coomassie stained gel",
  "data": [
    {"protein": "human recombinant PGLYRP1/Tag-7/PGRP-S with a C-terminal triple DED epitope (natural protein, UniProt O75594 22-196, looked up, called full-sized / full-size; On non-reducing SDS-PAGE the preparation is a mix of monomer (~25 kDa) and disulfide-linked homodimer (~60 kDa) of similar intensity; also called recombinant tagged PGLYRP1) QETEDPACCSPIVPRNEWKALASECAQHLSLPLRYVVVSHTAGSSCNTPASCQQQARNVQHYHMKTLGWCDVGYNFLIGEDGLVYEGRGWNFTGAHSGHLWNPMSIGISFMGNYMDRVPTPQAIRAAQGLLACGVAQGALRSNYVLKGHRDVQRTLSPGNQLYHLIQNWPHYRSP", "values": [
      {"measurement": "stoichiometry N", "value": 2}
    ]}
  ]
}
